Results reported in patent US20150351390A1, “COMPOSITIONS AND METHODS FOR AUXIN-ANALOG CONJUGATION” (PIONEER HI-BRED INTERNATIONAL, INC., priority 2012, published 2015).

What was measured:
[1] = LC-MS assay of GH3 conjugation of IAA with Asp or Glu; assay type: biochemical; details: for kcat (hrs−1) IAA-Asp: conjugation of IAA with Asp by recombinant GH3 protein, IAA-Asp product by LC-MS; for kcat (hrs−1) IAA-Glu: conjugation of IAA with Glu by recombinant GH3 protein, IAA-Glu product by LC-MS
Protocol: (§1) To detect and monitor the formation of acyl conjugates with 2,4-D or dicamba, a sensitive LC-MS method was developed using the respective amino acid conjugate standards. […] The reaction was performed at 30° C., 105 rpm, for 3 hours in buffer containing 20 mM Tris-HCl (pH 8.0), 5 mM MgCl2, 5 mM auxin (IAA, 2,4-D or dicamba), 5 mM ATP, 5 mM Asp or Glu, 1 mM DTT and 44 to 164 μg/mL purified GH3 protein in 100 μL reaction. After 3 hours of reaction, 400 μL 100% MeOH was added to the reaction mixture for protein precipitation. The supernatant was diluted 20× in water and then analyzed by LC-MS (AB Sciex 4000 QTrap coupled with Shimadzu Nexera UHPLC) using a Phenomenex Luna 3 μm Phenyl-Hexyl (00B-4256-Y0) column. The concentration of the conjugates was calculated based on the standards. Kinetic parameters were estimated by fitting initial velocity values to the Michaelis-Menten equation.
(§2) The GH3 superfamily conjugase activity analysis of IAA, 2,4-D or dicamba with Asp or Glu was done using LC-MS to analyze the final conjugate products as described in Example 1. Protein sequences of GH3 homologs (Table 3) were obtained from public databases (NCBI, http://www.ncbi.nlm.nih.gov/) by Blast analysis of AtGH3.17 protein sequence (accession # Q9FZ87). Coding sequences were designed for optimal expression in E. coli based on the protein sequences and synthesized. Synthesized coding sequences along with N-term his-tag coding sequences were cloned into a pET24a-based E. coli expression vector. The E. coli expression vectors were transformed into OverExpress C41(DE3) cells (Lucigen) for protein expression. Recombinant E. coli strains were inoculated into 5 ml LB media supplemented with 40 mg/L kanamycin and cultured overnight at 37° C. The overnight culture (0.5 mL) was inoculated into 50 mL LB medium plus 40 mg/L kanamycin and grown at 30° C. until OD600 reached 0.6. The cultures were induced with 0.2 mM IPTG at 16° C., 230 rpm overnight. Cells were harvested by centrifugation at 7,000 rpm for 10 mins. The cell pellet from 50 mL of cell culture was frozen and thawed twice and then lysed in 800 μL lysis buffer A (150 mM NaCl, 50 mM Tris-HCl pH 8.0, 5 mM MgCl2, 10% glycerol) plus 20 mM imidazole, 1 mM DTT, 0.2 mg/ml lysozyme, 1/200 protease inhibitor cocktail (EMD set3, EDTA free) and 1/2000 endonuclease. Lysate was then centrifuged at 13,000 rpm for 30 min at 4° C. Supernatant was loaded onto 200 μL Ni-NTA columns pre-equilibrated with buffer A with 20 mM imidazole at 4° C. Each column was then washed with (1) 2×800 μL of buffer A with 10 mM imidazole, (2) 2×800 μL of buffer A with 20 mM imidazole and (3) 2×200 μL of buffer A with 50 mM imidazole. Protein was eluted with 200 μL of buffer A with 250 mM imidazole. The concentration was measured by Bradford assay. Purified protein was used in conjugation reaction assays as described in example 1.

[2] = LC-MS assay of GH3 conjugation of 2,4-D with Asp or Glu; assay type: biochemical; details: for kcat (hrs−1) 2,4-D-Asp: conjugation of 2,4-D with Asp by recombinant GH3 protein, 2,4-D-Asp product by LC-MS; for kcat (hrs−1) 2,4-D-Asp / kcat (hrs−1) 2,4-D-Glu: 5 mM 2,4-D substrate; for kcat (hrs−1) 2,4-D-Glu: conjugation of 2,4-D with Glu by recombinant GH3 protein, 2,4-D-Glu product by LC-MS
Protocol: as §1, §2

Molecule | kcat (hrs−1) IAA-Asp [1] | kcat (hrs−1) IAA-Glu [1] | Conjugation of Glu to IAA ([1]; result in words) | kcat (hrs−1) 2,4-D-Asp [2] | kcat (hrs−1) 2,4-D-Glu [2] | IAA conjugation activity with Asp or Glu ([1]; result in words) | 2,4-D conjugation activity with Asp or Glu ([2]; result in words)
AtGH3-12: GH3 protein, accession Q9LYU4 (protein, listed as Arabidopsis thaliana) MKPIFDINETFEKQLKDLTSNVKSIQDNLLEEIITPNTKTEYLQRFLIDRFDKELFKKNVPIVSYEDIKPYLDRVVNGESSDVISARTITGFLLSSGTSGGAQKMMPWNNKYLDNLTFIYDLRMQVITKHVKGVEEGKGMMFLFTKQESMTPSGLPARVATSSYFKSDYFKNRPSNWYYSYTSPDEVILCPNNTESLYCHLLCGLVQRDEVVRTGSIFASVMVRAIEVLKNSWEELCSNIRSGHLSNWVTDLGCQNSVSLVLGGPRPELADTIEEICNQNSWKGIVKRLWPNTKYIETVVTGSMGQYVPMLNYYCNDLPLVSTTYGSSETTFGINLDPLCKPEDVSYTFMPNMSYFEFIPMDGGDKNDVVDLEDVKLGCTYEPVVTNFAGLYRMRVGDIVLVTGFYNNAPQFKFVRRENVVLSIDSDKTNEEDLFKAVSQAKLVLESSGLDLKDFTSYADTSTFPGHYVVYLEVDTKEGEEKETAQFELDEEALSTCCLVMEESLDNVYKRCRFKDGSIGPLEIRVVRQGTFDSLMDFFISQGASTGQYKTPRCIKSGKALQVLETCVVAKFFSI | 0.000 h⁻¹ | 10.015 h⁻¹ | can also conjugate Glu to IAA | 0.002 h⁻¹ | 0.026 h⁻¹ | – | –
AIGH3-14: GH3 protein, accession EFH47823 (protein, listed as Arabidopsis lyrata) MLPKFDPTDQKACLSLLEDVTTNVKQIQDSVLEAILSRNARTEYLSGFLNGQVDKQSFKKNLPVVTYEDIRPYIDRIANGEPSDLICDRPISVLLTSSGTSGGVPKLIPLTTDELEQRISFASLYRPLLYKYVEGIRERKSFMLYFVTRESETASGILVRTMITCVLKSLKPSNSFIWDQTQISPHGISTCSDTTQSMYCQLLCGLLQRDNVGRLGAPFASSFLKIIKFLEDHWPEFCSNIRTGRLSDWITDPQCVSGIGKFLTAPDPELASLIEQECSQTSWEAIVKRLWPKAKCIEAIVTGTMAQYIPLLEFYSGGLPVISTFYGSSECFIGLNLNPLSKPSDVSYTIIPCMAYFEFLEVGKDYQETGHDPAEKPVVVDLVDVKIGHDYEPVVTTFAGLYRYRLGDVLRVTGFYNNAPQFHFVGRQKVVLSIDMDKTYEEDLLKAVTNAKLLLEPHDLMLMDFTSRVDSSSFPGHYVLYWELGSKVKDAKLELDPNVLEECCFTIEESLDAVYRKGRKNDKNIGPLEIKVVKSGAFEELMNLFLSRGSSVSQYKTPRSVTNEEAVKILESNVVSEFLSRKTPSWELHELYSNR | 0.000 h⁻¹ | 1.756 h⁻¹ | can also conjugate Glu to IAA | 0.140 h⁻¹ | 0.322 h⁻¹ | – | –
ZmACF88044: GH3 protein, accession ACF88044 (protein, Zea mays) MATYEDLQPYIRRIADGDRSPILSGHPVSEFLTSSGTSAGERKLMPTIEDELNRRQLLYSLQMPVMNLYVPGMDKGKALHFLFVKSETKTPGGLAARPVLTSYYKSNHFKNRPFDAYNNYTSPTAAILCADAFQSMYAQMLCGLCQRQDVLRVGAVFASGLLRAIRFLQLNWEQLAEDIEAGSLTPRVTDPSVREAVAGILRADPELAALVRSECSKGDWAGIITRIWPSTKYLDVIVTGAMAQYIPTLKYYSGGLPMACTMYASSECYFGLNLRPMCDPSEVSYTLMPNMCYFEFLPMDSAAASGGDASQLVDLARVEVGREYELVITTYAGLNRYRVGDVLQVTGFHNSAPQFRFVRRKNVLLSIESDKTDEAELQRAVERASALLRPHGAAVVEYTSQAYTKSIPGHYVIYWELLAKGPAGGAAVGEGTLERCCLEMEEALNTVYRQSRVADGSIGPLEIRVVRPGTFEELMDYAISRGASINQYKVPRCVTFPPIIELLDSRVVSSHFSPALPHWTPGQRSDSD | 0.000 h⁻¹ | 0.000 h⁻¹ | – | 0.000 h⁻¹ | 0.033 h⁻¹ | IAA-inactive | 2,4-D conjugases
AtGH3-7: GH3 protein, accession AAC00604 (protein, listed as Arabidopsis thaliana) MSLTSDLSEKSSDKMKVLEDLTSNVTQIQDNVLEEILTLNANTNYLQKFFLGSFDKESFKKNVPVVTYEDVKPYIERVVNGEPSNVISARPITGFVLSTGTSGGAQKMMPWNEKYLDNLTFMYDLRMHIISNNVKDVEKGKAMMFYFTKLESITPSGLPARVASSSYLKSNYFKNRPSNWYYSYTSPDEVTLCPDNKQNLYCHLLCGLVQRNEVTRMGSIFASVMVRAIKFLEDSWEELCSNIRSGQLSEWITDIGCRDSVSLVLGGPHPEAADTIEQICNQKCWKGIITRLWPKAKYIETIVTGSMVQYVPTLNYYSNNMLPLISTIYASSETQFGLNLNPMCKPEDVSYTFMPNVSYFEFIPVDGDKNDVVDLADVKLGCCYEAVVTNFSGLYRIRVGDILVVTGFHNKAPQFRFIRRDNVVLSIDLDKTNEDDLFKAVNNAKLTLDSSHLMLIDFTSYADISTIPGHYVVYWEVKNKNEDKKSKKHIELKEETFSECCLLMEDSLDSVYKICRFKEESVGPLEIKVVRQGTFDSLMDYFISQGASIGQYKTPRCIKSGKALEVLEENVVATFFST | 0.000 h⁻¹ | 5.361 h⁻¹ | can also conjugate Glu to IAA | 0.000 h⁻¹ | 0.000 h⁻¹ | – | –
AtGH3-19: GH3 protein, accession AAG60122 (protein, listed as Arabidopsis thaliana) MSLSVELKDLEVLTTNAKQIQDDVLKEILTLNANTEYLKRFLDGSSDKELFKKNVPVVSYNDVKPYIERVANGEPSDVISGGTITRFVQSTGTSGGIHKIFPVNDKYIENLGYLLAVSSLITSNDKVDEKGKKMAFLYNRLESKTPSGLALSSSFTSYFMSDYFKNRSSKCNSEYTSPDQVILCPDNNQSVYCHLLCGLSQREKVVGVSATFAHALIKAINALQIYWKELSSNIRSGHVSEWITDLDCKNAVSAILGGPDPELADVIEQECSHKSWEGIITRLWPKAKFIECIVTGQMAQYIPTLDFYSNKLPIVSMVYGSSESIFGVNVDPLSKPQDVSYTFLPNISYFEFLPIDHEEDMNTIVDLVGVKLGCYYETVVTSYFGLHRYLIGDILQVTGFYNNTPQFRFVRRKNIVLSVNSEATTEQDILKGLASATLVLESSNSMLTGFTCYADISSFPGHYVFYWELKAKDVDDVVELDENVLEECCYALEESFDALYKRLRSKEGSIGALEIKVVQQGTFDSLMEYFISKGGSVAQYKTPMCINSSETLAVLEDKVIARFYSQKSPPLNL | 0.000 h⁻¹ | 3.177 h⁻¹ | can also conjugate Glu to IAA | 0.014 h⁻¹ | 0.048 h⁻¹ | – | –
